{
  "source": "paper PMC9103234",
  "target": "CD20 on the surface of Raji cells (human (endogenous in Raji)) (UniProt P11836)",
  "sequence (P11836 whole entry)": "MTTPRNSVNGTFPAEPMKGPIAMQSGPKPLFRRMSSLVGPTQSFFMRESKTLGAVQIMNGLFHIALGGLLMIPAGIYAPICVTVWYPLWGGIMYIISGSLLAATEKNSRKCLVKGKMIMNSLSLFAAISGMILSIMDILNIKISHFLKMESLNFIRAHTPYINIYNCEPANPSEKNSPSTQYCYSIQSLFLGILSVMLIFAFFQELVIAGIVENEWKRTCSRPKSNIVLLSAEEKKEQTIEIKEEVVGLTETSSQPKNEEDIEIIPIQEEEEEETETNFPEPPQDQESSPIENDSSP",
  "data": [
    {"substance": "rituximab (antibody)", "values": [
      {"measurement": "EC50 of complement-dependent cytotoxicity on Raji cells (LDH release, guinea-pig complement)", "result": 0.88, "unit": "nM"}
    ]}
  ]
}
